Measured values published in PMC5499577 (Nucleic Acids Research, 2017).
Where a chain is given by its changes, count along the chain named. Names and notes keep the numbering of the source. Where two headings read alike, the source gives them in different places.

B1: LI Int CTD Y369A (133-452) (domain or fragment, Listeria innocua (prophage), UniProt Q928V6 133-452, looked up)
chain: RDRMVMGKIKRIEAGLPLTTAKGRTFGYDVIDTKLYINEEEAKQLRLIYDIFEEEQSITFLQKRLKKLGFKVRTYNRYNNWLTNDLYCGYVSYKDKVHVKGIHEPIISEEQFYRVQEIFSRMGKNPNMNKESASLLNNLVVCSKCGLGFVHRRKDTVSRGKKYHYRYYSCKTYKHTHELEKCGNKIWRADKLEELIIDRVNNYSFASRNIDKEDELDSLNEKLKIEHAKKKRLFDLAINGSYEVSELDSMMNDIDAQINYYEAQIEANEELKKNKKIQENLADLATVDFNSLEFREKQLYLKSLINKIYIDGEQVTIEWL
B2: LI Int CTD K362A (133-452) (domain or fragment, Listeria innocua (prophage), UniProt Q928V6 133-452, looked up)
chain: B1 chain with K230A, A237Y
B3: LI Int carboxy-terminal domain, CTD (133-452) (domain or fragment, Listeria innocua (prophage), UniProt Q928V6 133-452, looked up)
chain: B1 chain with A237Y
B4: His6Flag-Smt3-CC-I fusion of the LI Int coiled-coil domain (345-405) (domain or fragment, Listeria innocua (prophage), UniProt Q928V6 345-405, looked up)
chain: EDELDSLNEKLKIEHAKKKRLFDLYINGSYEVSELDSMMNDIDAQINYYEAQIEANEELKK
B5: Listeria innocua integrase (LI Int), wild type, full length (enzyme, Listeria innocua (prophage), UniProt Q928V6 1-452, looked up)
chain: MKAAIYIRVSTQEQVENYSIQAQTEKLTALCRSKDWDVYDTFIDGGYSGSNMNRPALNEMLSKLHEIDAVVVYRLDRLSRSQKDTITLIEEYFLKNNVEFVSLSETLDTSSPFGRAMIGILSVFAQLERETIRDRMVMGKIKRIEAGLPLTTAKGRTFGYDVIDTKLYINEEEAKQLRLIYDIFEEEQSITFLQKRLKKLGFKVRTYNRYNNWLTNDLYCGYVSYKDKVHVKGIHEPIISEEQFYRVQEIFSRMGKNPNMNKESASLLNNLVVCSKCGLGFVHRRKDTVSRGKKYHYRYYSCKTYKHTHELEKCGNKIWRADKLEELIIDRVNNYSFASRNIDKEDELDSLNEKLKIEHAKKKRLFDLYINGSYEVSELDSMMNDIDAQINYYEAQIEANEELKKNKKIQENLADLATVDFNSLEFREKQLYLKSLINKIYIDGEQVTIEWL
B6: LI Int with the coiled-coil motif deleted, IntΔCC (Δ342-416) (enzyme, Listeria innocua (prophage), UniProt Q928V6 1-452, looked up)
chain: MKAAIYIRVSTQEQVENYSIQAQTEKLTALCRSKDWDVYDTFIDGGYSGSNMNRPALNEMLSKLHEIDAVVVYRLDRLSRSQKDTITLIEEYFLKNNVEFVSLSETLDTSSPFGRAMIGILSVFAQLERETIRDRMVMGKIKRIEAGLPLTTAKGRTFGYDVIDTKLYINEEEAKQLRLIYDIFEEEQSITFLQKRLKKLGFKVRTYNRYNNWLTNDLYCGYVSYKDKVHVKGIHEPIISEEQFYRVQEIFSRMGKNPNMNKESASLLNNLVVCSKCGLGFVHRRKDTVSRGKKYHYRYYSCKTYKHTHELEKCGNKIWRADKLEELIIDRVNNYSFASRNATVDFNSLEFREKQLYLKSLINKIYIDGEQVTIEWL
B7: LI Int isolated coiled-coil domain CC-III (349-400) (domain or fragment, Listeria innocua (prophage), UniProt Q928V6 349-400, looked up)
chain: DSLNEKLKIEHAKKKRLFDLYINGSYEVSELDSMMNDIDAQINYYEAQIEAN

What was measured:
AUC [1] = target: the molecule itself; assay: AUC
crystal structure = target: the molecule itself; assay: crystal structure
AUC [2] = target: the molecule itself; assay: AUC; remark: listed apart in the source

| Protein | Kd (AUC [1]) [µM] | stoichiometry N (AUC [1]) | binding result (crystal structure) | Kd (AUC [2]) [µM] | stoichiometry N (AUC [2]) |
| --- | --- | --- | --- | --- | --- |
| B1 | 289 | 2 | – | – | – |
| B2 | 45.2 | 2 | – | – | – |
| B3 | 18.8 | 2 | – | – | – |
| SLNEKLKIEHAKKKRLFDLYINGSYEVSELDSMMNDIDAQINYYEAQIEA (domain or fragment, Listeria innocua (prophage), UniProt Q928V6 350-399, looked up) [LI Int isolated coiled-coil domain CC-II (350-399)] | – | – | binds | – | – |
| B4 | – | – | – | 20.1 | 2 |
| B5 | ≤ 0.032 | 2 | – | – | – |
| B6 | 5.7 | 2 | – | – | – |
| B7 | – | – | binds | – | – |
